Molecular target: T1, cynomolgus LAG-3 (cynomolgus monkey)
T1 construct: whole, on cells; also called cynomolgus LAG-3 on transfected CHO cells
Test: flow cytometry on transfected CHO cells and activated cynomolgus T cells

EC50: 21.5 to 34.3 nM
B1: BMS-986016 (antibody, human IgG4 S228P, kappa, V domains shown)
VH: QVQLQQWGAGLLKPSETLSLTCAVYGGSFSDYYWNWIRQPPGKGLEWIGEINHRGSTNSNPSLKSRVTLSLDTSKNQFSLKLRSVTAADTAVYYCAFGYSDYEYNWFDPWGQGTLVTVSS
VL: EIVLTQSPATLSLSPGERATLSCRASQSISSYLAWYQQKPGQAPRLLIYDASNRATGIPARFSGSGSGTDFTLTISSLEPEDFAVYYCQQRSNWPLTFGQGTNLEIKR
notes: also called anti-LAG-3 antibody
